Laboratory results taken from the supplement of paper PMC9112550, “Optimization of the antimicrobial peptide Bac7 by deep mutational scanning” (BMC Biology, 2022).

Test system: Escherichia coli TOP10
Assay: shrunken log2 fold change of peptide-encoding DNA abundance (4.5 h post-induction vs induction); higher = less antimicrobial activity (less host growth inhibition)
Details: time post-induction: 4.5 h; library: site-saturation at positions 5, 18, 19, 20
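Note: peptides expressed intracellularly from a pBAD plasmid library in pooled LB shake-flask culture, induced with 0.3% L-arabinose, DNA abundance read by NGS, three biological replicates, DESeq2 with apeglm shrinkage.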

Row | Sequence | shrunken log2 fold change
1 | RRIRTRPPRLPRPRPRPRGLPRP | 0.62
2 | RRIRERPPRLPRPRPRPTIWPRP | -0.222
3 | RRIRTRPPRLPRPRPRPQFAPRP | 0.0816
4 | RRIRVRPPRLPRPRPRPHKEPRP | 0.0216
5 | RRIRIRPPRLPRPRPRPSDKPRP | -0.79
6 | RRIRHRPPRLPRPRPRPDYKPRP | 0.00107
7 | RRIRARPPRLPRPRPRPGMGPRP | 0.639
8 | RRIRHRPPRLPRPRPRPHIMPRP | -0.63
9 | RRIRFRPPRLPRPRPRPSDYPRP | -0.219
10 | RRIRIRPPRLPRPRPRPTSPPRP | 0.118
11 | RRIRCRPPRLPRPRPRPWCWPRP | 0.0184
12 | RRIRKRPPRLPRPRPRPCFRPRP | -0.0108
13 | RRIRYRPPRLPRPRPRPTQKPRP | -0.0476
14 | RRIRARPPRLPRPRPRPCTLPRP | 0.151
15 | RRIRVRPPRLPRPRPRPWMPPRP | -0.199
16 | RRIRMRPPRLPRPRPRPWSAPRP | 0.149
17 | RRIRPRPPRLPRPRPRPNSSPRP | -0.396
18 | RRIRYRPPRLPRPRPRPSWMPRP | -0.534
19 | RRIRVRPPRLPRPRPRPWSDPRP | -0.138
20 | RRIRIRPPRLPRPRPRPTMGPRP | 0.0793
21 | RRIRMRPPRLPRPRPRPPGTPRP | 1.05
22 | RRIRVRPPRLPRPRPRPHHSPRP | -0.593
23 | RRIRGRPPRLPRPRPRPHYQPRP | -0.15
24 | RRIRIRPPRLPRPRPRPENFPRP | -0.0605
25 | RRIRVRPPRLPRPRPRPIEMPRP | -0.267

Row | Sequence | shrunken log2 fold change
26 | RRIRERPPRLPRPRPRPWASPRP | -0.00133
27 | RRIRSRPPRLPRPRPRPVGSPRP | 0.304
28 | RRIRMRPPRLPRPRPRPCTCPRP | 0.0043
29 | RRIRNRPPRLPRPRPRPDMGPRP | -0.00968
30 | RRIRVRPPRLPRPRPRPTYTPRP | -0.172
31 | RRIRTRPPRLPRPRPRPWMDPRP | -0.13
32 | RRIRPRPPRLPRPRPRPQCIPRP | -0.182
33 | RRIRWRPPRLPRPRPRPVDYPRP | 0.0136
34 | RRIRERPPRLPRPRPRPSRAPRP | 0.12
35 | RRIRCRPPRLPRPRPRPGGRPRP | 0.404
36 | RRIRYRPPRLPRPRPRPTFPPRP | -0.279
37 | RRIRPRPPRLPRPRPRPWQFPRP | 0.00677
38 | RRIRFRPPRLPRPRPRPDKRPRP | -0.0786
39 | RRIRIRPPRLPRPRPRPQMVPRP | -0.186
40 | RRIRTRPPRLPRPRPRPEVKPRP | 0.174
41 | RRIRNRPPRLPRPRPRPKTRPRP | 0.138
42 | RRIRSRPPRLPRPRPRPGVCPRP | 0.562
43 | RRIRYRPPRLPRPRPRPEKSPRP | -0.0559
44 | RRIRMRPPRLPRPRPRPKTFPRP | 0.0371
45 | RRIRNRPPRLPRPRPRPSGEPRP | 0.155
46 | RRIRNRPPRLPRPRPRPCWQPRP | -0.0118
47 | RRIRVRPPRLPRPRPRPQVEPRP | -0.272
48 | RRIRGRPPRLPRPRPRPCSGPRP | -0.111
49 | RRIRWRPPRLPRPRPRPDHQPRP | -0.197
50 | RRIRGRPPRLPRPRPRPMIPPRP | -0.219

Row | Sequence | shrunken log2 fold change
51 | RRIRDRPPRLPRPRPRPITRPRP | 0.0173
52 | RRIRFRPPRLPRPRPRPGYAPRP | -0.0137
53 | RRIRVRPPRLPRPRPRPEHSPRP | 0.115
54 | RRIRPRPPRLPRPRPRPKRPPRP | 0.465
55 | RRIRHRPPRLPRPRPRPPWFPRP | -0.27
56 | RRIRYRPPRLPRPRPRPAHTPRP | -0.113
57 | RRIRLRPPRLPRPRPRPSSFPRP | -0.0574
58 | RRIRHRPPRLPRPRPRPRFNPRP | -0.316
59 | RRIRWRPPRLPRPRPRPDLVPRP | 0.0575
60 | RRIRFRPPRLPRPRPRPLPCPRP | -0.199
61 | RRIRTRPPRLPRPRPRPECHPRP | -0.247
62 | RRIRKRPPRLPRPRPRPEYIPRP | -0.367
63 | RRIRVRPPRLPRPRPRPGLMPRP | 0.0219
64 | RRIRQRPPRLPRPRPRPDDQPRP | 0.164
65 | RRIRMRPPRLPRPRPRPTTHPRP | 0.295
66 | RRIRPRPPRLPRPRPRPGTSPRP | -0.0162
67 | RRIRARPPRLPRPRPRPIPDPRP | 0.604
68 | RRIRARPPRLPRPRPRPQDAPRP | 0.215
69 | RRIRIRPPRLPRPRPRPLTSPRP | -0.188
70 | RRIRRRPPRLPRPRPRPTNGPRP | -0.168
71 | RRIRFRPPRLPRPRPRPRAQPRP | 0.191
72 | RRIRFRPPRLPRPRPRPFQHPRP | -0.209
73 | RRIRSRPPRLPRPRPRPGTYPRP | -1.16
74 | RRIRHRPPRLPRPRPRPCTRPRP | 0.0237
75 | RRIRSRPPRLPRPRPRPERLPRP | 0.131

Row | Sequence | shrunken log2 fold change
76 | RRIRKRPPRLPRPRPRPGEPPRP | 0.305
77 | RRIRARPPRLPRPRPRPIVTPRP | 0.155
78 | RRIRWRPPRLPRPRPRPCAKPRP | -0.0723
79 | RRIRTRPPRLPRPRPRPRQEPRP | 0.0565
80 | RRIRGRPPRLPRPRPRPQHAPRP | 0.797
81 | RRIRVRPPRLPRPRPRPFNMPRP | -0.19
82 | RRIRHRPPRLPRPRPRPNTDPRP | -0.438
83 | RRIRVRPPRLPRPRPRPWAVPRP | 0.157
84 | RRIRHRPPRLPRPRPRPAAAPRP | 0.443
85 | RRIRVRPPRLPRPRPRPWRSPRP | -0.0506
86 | RRIRHRPPRLPRPRPRPDPYPRP | -0.126
87 | RRIRPRPPRLPRPRPRPSMYPRP | -0.676
88 | RRIRPRPPRLPRPRPRPGNHPRP | -0.16
89 | RRIRDRPPRLPRPRPRPIYSPRP | -0.15
90 | RRIRWRPPRLPRPRPRPTNEPRP | 0.225
91 | RRIRGRPPRLPRPRPRPFANPRP | 0.0848
92 | RRIRSRPPRLPRPRPRPFSVPRP | -0.416
93 | RRIRWRPPRLPRPRPRPGLRPRP | 0.53
94 | RRIRKRPPRLPRPRPRPRLHPRP | 0.312
95 | RRIRIRPPRLPRPRPRPCACPRP | -0.889
96 | RRIRTRPPRLPRPRPRPFSVPRP | 0.0234
97 | RRIRTRPPRLPRPRPRPQQDPRP | -0.18
98 | RRIRPRPPRLPRPRPRPIKQPRP | 0.109
99 | RRIRSRPPRLPRPRPRPKAIPRP | 0.119
100 | RRIRSRPPRLPRPRPRPCWQPRP | -0.00872

Row | Sequence | shrunken log2 fold change
101 | RRIRHRPPRLPRPRPRPKDFPRP | -0.0494
102 | RRIRSRPPRLPRPRPRPWFPPRP | -0.331
103 | RRIRKRPPRLPRPRPRPMFEPRP | 0.312
104 | RRIRGRPPRLPRPRPRPDLKPRP | 0.0305
105 | RRIRVRPPRLPRPRPRPFGEPRP | 0.092
106 | RRIRQRPPRLPRPRPRPMWVPRP | 0.551
107 | RRIRKRPPRLPRPRPRPKANPRP | 0.768
108 | RRIRFRPPRLPRPRPRPNASPRP | -0.304
109 | RRIRRRPPRLPRPRPRPPVGPRP | 0.366
110 | RRIRFRPPRLPRPRPRPNARPRP | 0.241
111 | RRIRKRPPRLPRPRPRPTYSPRP | -0.191
112 | RRIRARPPRLPRPRPRPALQPRP | 0.354
113 | RRIRFRPPRLPRPRPRPYILPRP | -1.31
114 | RRIRGRPPRLPRPRPRPVEDPRP | 0.0393
115 | RRIRDRPPRLPRPRPRPQNSPRP | -0.24
116 | RRIRVRPPRLPRPRPRPVDIPRP | 0.0216
117 | RRIRYRPPRLPRPRPRPNLMPRP | -0.617
118 | RRIRIRPPRLPRPRPRPTWHPRP | -0.242
119 | RRIRTRPPRLPRPRPRPKDPPRP | 0.0667
120 | RRIRSRPPRLPRPRPRPEECPRP | 0.251
121 | RRIRRRPPRLPRPRPRPVVNPRP | 0.61
122 | RRIRWRPPRLPRPRPRPCNRPRP | -0.0268
123 | RRIRMRPPRLPRPRPRPKGNPRP | 0.0272
124 | RRIRNRPPRLPRPRPRPHHMPRP | -1.41
125 | RRIRNRPPRLPRPRPRPLCYPRP | -0.781

Row | Sequence | shrunken log2 fold change
126 | RRIRDRPPRLPRPRPRPDFWPRP | 0.596
127 | RRIRGRPPRLPRPRPRPEWFPRP | 0.683
128 | RRIRRRPPRLPRPRPRPIGQPRP | 0.182
129 | RRIRWRPPRLPRPRPRPHGAPRP | 0.0287
130 | RRIRPRPPRLPRPRPRPIKHPRP | -0.31
131 | RRIRNRPPRLPRPRPRPWWPPRP | -0.218
132 | RRIRCRPPRLPRPRPRPMDWPRP | -0.0172
133 | RRIRPRPPRLPRPRPRPHAWPRP | 0.189
134 | RRIRWRPPRLPRPRPRPGWFPRP | 0.249
135 | RRIRHRPPRLPRPRPRPVTHPRP | -0.12
136 | RRIRKRPPRLPRPRPRPSRCPRP | 0.392
137 | RRIRHRPPRLPRPRPRPNKWPRP | -0.0964
138 | RRIRHRPPRLPRPRPRPYPWPRP | -0.113
139 | RRIRIRPPRLPRPRPRPYDFPRP | 0.126
140 | RRIRPRPPRLPRPRPRPIVEPRP | 0.233
141 | RRIRHRPPRLPRPRPRPAVKPRP | -0.0915
142 | RRIRFRPPRLPRPRPRPTAFPRP | 0.0899
143 | RRIRRRPPRLPRPRPRPHPRPRP | 1.03
144 | RRIRDRPPRLPRPRPRPVMIPRP | 0.0644
145 | RRIRCRPPRLPRPRPRPENRPRP | -0.168
146 | RRIRVRPPRLPRPRPRPKHTPRP | -0.177
147 | RRIRQRPPRLPRPRPRPTSFPRP | -0.0413
148 | RRIRRRPPRLPRPRPRPINAPRP | 0.185
149 | RRIRCRPPRLPRPRPRPHVCPRP | 0.0221
150 | RRIRMRPPRLPRPRPRPIPTPRP | 0.0467
